Experimental data published in patent US20090214555A1.
Where no end group is shown, it is not given here.

Biological target: rabbit polyclonal anti-Syn2vE1a antibodies
Test: epitope peptide competition: antisera pre-absorbed with 3 mg/ml synthetic epitope peptide, then Western blot on Syn2vE1a lysate

B1: synthetic epitope peptide (C)…-amide (peptide)
peptide: CGIRRAPLYKRHPTGTA-NH2
**Q.** Which percent of anti-Syn2vE1a signals blocked does the source give for B1 here?
**A.** > 98%
